The chains are these.
T1: FcγRIIb extracellular domain with C-terminal His tag (human, UniProt P31994 43-217)
T1 construct: extracellular domain; Soluble receptor expressed in FreeStyle293 cells, used as analyte in Biacore; also called FcgRIIb; CD32B; not shown: His tag at the C terminus
T1 sequence (looked up): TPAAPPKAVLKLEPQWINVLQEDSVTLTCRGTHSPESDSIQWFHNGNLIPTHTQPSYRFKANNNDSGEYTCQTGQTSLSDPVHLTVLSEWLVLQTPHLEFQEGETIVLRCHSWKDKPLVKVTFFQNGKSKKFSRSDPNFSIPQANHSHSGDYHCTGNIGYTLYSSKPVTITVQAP

T2: FcγRIIb (human, UniProt P31994 43-217)
T2 construct: extracellular domain; also called FcgRIIb; 2b; not shown: His tag at the C terminus
T2 sequence (looked up): T1 sequence (looked up)

B1: GpH7-A5/GpH7-B3 variant Q295_02A/GpL16-k0 (antibody, human IgG1, kappa)
heavy 1: not shown
heavy 2: not shown
light: DIVMTQSPLSLPVTPGEPASISCQASESLVHSNRNTYLHWYLQKPGQSPQLLIYKVSNRFSGVPDRFSGSGSGTDFTLKISRVEAEDVGVYYCSQNTHVPPTFGQGTKVEIERTVAAPSVFIFPPSDEQLKSGTASVVCLLNNFYPREAKVQWKVDNALQSGNSQESVTEQDSKDSTYSLSSTLTLSKADYEKHKVYACEVTHQGLSSPVTKSFNRGEC
notes: Heterodimerized anti-glypican-3 IgG1; substitution in only one H chain; also called Q295A; He Ab
B2: GpH7-A5/GpH7-B3 variant Q295_06M/GpL16-k0 (antibody, human IgG1, kappa)
heavy 1: not shown
heavy 2: not shown
light: B1 light
notes: Heterodimerized anti-glypican-3 IgG1; substitution in only one H chain; also called Q295M; He Ab
B3: GpH7-B3 variant S324_01G/GpL16-k0 (homodimerized antibody, Ho Ab) (antibody, human IgG1, kappa)
heavy: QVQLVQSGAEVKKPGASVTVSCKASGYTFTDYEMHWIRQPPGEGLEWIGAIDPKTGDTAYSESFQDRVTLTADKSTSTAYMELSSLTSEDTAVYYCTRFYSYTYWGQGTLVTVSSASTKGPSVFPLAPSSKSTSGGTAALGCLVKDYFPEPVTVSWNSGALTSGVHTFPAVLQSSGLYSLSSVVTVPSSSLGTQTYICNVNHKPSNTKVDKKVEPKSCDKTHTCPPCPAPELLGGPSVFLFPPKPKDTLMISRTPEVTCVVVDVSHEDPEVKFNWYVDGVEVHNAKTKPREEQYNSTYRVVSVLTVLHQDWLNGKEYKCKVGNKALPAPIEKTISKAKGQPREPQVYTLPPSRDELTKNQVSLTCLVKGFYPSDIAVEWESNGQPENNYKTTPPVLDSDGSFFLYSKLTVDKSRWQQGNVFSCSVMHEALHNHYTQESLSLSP
light: B1 light
notes: Mutation in both H chains; also called S324_01G Ho Ab
B4: GpH7-B3 variant S239_18N/GpL16-k0 (homodimerized antibody, Ho Ab) (antibody, human IgG1, kappa)
heavy: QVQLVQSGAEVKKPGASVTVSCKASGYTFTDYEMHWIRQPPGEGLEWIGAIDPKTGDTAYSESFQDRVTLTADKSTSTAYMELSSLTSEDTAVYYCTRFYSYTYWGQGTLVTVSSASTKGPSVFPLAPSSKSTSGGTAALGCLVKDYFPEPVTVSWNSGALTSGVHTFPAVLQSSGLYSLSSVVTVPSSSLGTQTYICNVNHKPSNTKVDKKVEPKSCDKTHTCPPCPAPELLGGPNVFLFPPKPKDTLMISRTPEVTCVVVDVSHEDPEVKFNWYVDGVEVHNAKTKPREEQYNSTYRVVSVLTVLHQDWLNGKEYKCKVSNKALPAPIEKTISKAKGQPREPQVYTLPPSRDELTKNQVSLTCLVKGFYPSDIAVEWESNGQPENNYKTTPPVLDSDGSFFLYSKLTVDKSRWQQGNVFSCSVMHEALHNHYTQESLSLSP
light: B1 light
notes: Mutation in both H chains; also called S239_18N Ho Ab
B5: GpH7-B3 variant S239_10E/GpL16-k0 (homodimerized antibody, Ho Ab) (antibody, human IgG1, kappa)
heavy: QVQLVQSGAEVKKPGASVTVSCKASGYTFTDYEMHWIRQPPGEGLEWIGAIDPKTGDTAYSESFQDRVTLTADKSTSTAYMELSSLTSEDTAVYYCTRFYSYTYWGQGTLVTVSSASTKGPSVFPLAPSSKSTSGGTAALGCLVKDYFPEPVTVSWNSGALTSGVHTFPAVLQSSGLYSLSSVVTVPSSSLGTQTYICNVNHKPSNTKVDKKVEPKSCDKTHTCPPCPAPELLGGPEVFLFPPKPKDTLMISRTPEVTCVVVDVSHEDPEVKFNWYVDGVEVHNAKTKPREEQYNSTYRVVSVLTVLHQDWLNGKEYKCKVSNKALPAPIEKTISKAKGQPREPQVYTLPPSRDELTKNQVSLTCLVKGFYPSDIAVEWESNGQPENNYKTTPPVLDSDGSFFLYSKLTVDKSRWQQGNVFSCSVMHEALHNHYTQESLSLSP
light: B1 light
notes: Mutation in both H chains; also called S239_10E Ho Ab
B6: GpH7-B3 variant S324_09D/GpL16-k0 (homodimerized antibody, Ho Ab) (antibody, human IgG1, kappa)
heavy: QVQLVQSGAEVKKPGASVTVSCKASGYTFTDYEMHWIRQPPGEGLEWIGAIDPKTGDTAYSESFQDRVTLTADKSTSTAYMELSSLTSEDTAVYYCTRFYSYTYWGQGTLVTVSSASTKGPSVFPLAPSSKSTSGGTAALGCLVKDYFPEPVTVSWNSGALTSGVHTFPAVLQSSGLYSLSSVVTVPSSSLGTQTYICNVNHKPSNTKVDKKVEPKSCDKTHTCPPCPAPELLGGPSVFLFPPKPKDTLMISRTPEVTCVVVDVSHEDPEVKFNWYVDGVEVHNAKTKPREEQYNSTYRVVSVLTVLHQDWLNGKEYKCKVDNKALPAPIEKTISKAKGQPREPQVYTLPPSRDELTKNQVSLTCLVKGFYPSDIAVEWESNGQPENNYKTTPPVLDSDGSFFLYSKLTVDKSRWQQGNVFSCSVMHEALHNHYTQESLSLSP
light: B1 light
notes: Mutation in both H chains; also called S324_09D Ho Ab
B7: GpH7-B3 variant S298_03V/GpL16-k0 (homodimerized antibody, Ho Ab) (antibody, human IgG1, kappa)
heavy: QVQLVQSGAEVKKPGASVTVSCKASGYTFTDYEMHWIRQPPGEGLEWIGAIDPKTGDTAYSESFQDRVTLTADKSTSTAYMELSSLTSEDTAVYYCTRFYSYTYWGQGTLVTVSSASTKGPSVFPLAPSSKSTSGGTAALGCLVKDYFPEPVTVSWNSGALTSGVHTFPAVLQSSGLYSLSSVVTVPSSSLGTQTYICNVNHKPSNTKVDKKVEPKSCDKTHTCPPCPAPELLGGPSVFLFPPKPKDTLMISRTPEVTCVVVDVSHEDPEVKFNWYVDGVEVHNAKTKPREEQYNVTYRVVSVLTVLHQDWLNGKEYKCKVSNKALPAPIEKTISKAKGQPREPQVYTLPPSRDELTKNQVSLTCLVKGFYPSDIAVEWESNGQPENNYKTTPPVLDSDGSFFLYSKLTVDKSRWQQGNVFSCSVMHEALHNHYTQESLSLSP
light: B1 light
notes: Mutation in both H chains; also called S298_03V Ho Ab
B8: GpH7-B3 variant S337_01G/GpL16-k0 (homodimerized antibody, Ho Ab) (antibody, human IgG1, kappa)
heavy: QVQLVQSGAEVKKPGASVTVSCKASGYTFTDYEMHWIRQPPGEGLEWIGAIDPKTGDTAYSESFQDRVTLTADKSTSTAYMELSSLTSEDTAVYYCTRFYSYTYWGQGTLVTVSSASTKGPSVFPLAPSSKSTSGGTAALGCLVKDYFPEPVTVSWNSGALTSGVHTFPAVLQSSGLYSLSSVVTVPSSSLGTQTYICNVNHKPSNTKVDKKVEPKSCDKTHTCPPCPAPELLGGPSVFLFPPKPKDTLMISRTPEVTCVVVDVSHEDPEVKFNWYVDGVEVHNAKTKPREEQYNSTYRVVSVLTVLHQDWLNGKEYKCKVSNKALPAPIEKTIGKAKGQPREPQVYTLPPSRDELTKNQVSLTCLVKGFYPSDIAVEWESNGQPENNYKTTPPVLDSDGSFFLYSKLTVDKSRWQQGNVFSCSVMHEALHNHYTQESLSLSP
light: B1 light
notes: Mutation in both H chains; also called S337_01G Ho Ab
B9: GpH7-B3 variant S324_14T/GpL16-k0 (homodimerized antibody, Ho Ab) (antibody, human IgG1, kappa)
heavy: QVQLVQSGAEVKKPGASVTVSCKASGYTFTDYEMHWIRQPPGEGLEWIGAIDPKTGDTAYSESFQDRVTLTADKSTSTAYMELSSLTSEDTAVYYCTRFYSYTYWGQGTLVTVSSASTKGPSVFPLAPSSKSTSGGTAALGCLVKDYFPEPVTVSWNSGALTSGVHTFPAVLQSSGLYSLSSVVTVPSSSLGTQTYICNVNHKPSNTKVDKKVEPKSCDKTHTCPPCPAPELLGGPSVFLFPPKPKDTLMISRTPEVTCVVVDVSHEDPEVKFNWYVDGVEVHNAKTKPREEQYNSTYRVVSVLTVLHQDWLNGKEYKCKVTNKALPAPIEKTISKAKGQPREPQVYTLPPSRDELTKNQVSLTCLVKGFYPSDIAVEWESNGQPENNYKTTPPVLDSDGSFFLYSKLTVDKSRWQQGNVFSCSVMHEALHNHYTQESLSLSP
light: B1 light
notes: Mutation in both H chains; also called S324_14T Ho Ab
B10: GpH7-B3 variant S324_20W/GpL16-k0 (homodimerized antibody, Ho Ab) (antibody, human IgG1, kappa)
heavy: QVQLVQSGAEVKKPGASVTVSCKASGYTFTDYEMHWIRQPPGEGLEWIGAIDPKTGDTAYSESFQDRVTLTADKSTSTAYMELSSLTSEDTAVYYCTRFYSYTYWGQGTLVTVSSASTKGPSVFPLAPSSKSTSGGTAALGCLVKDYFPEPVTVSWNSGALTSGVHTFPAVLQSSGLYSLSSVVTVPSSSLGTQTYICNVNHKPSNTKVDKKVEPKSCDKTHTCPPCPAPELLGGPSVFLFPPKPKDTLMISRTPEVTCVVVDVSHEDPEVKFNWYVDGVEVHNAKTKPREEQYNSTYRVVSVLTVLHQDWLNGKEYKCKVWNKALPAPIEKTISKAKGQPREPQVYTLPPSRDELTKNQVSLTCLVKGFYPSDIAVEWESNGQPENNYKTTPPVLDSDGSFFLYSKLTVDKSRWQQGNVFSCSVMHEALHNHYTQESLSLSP
light: B1 light
notes: Mutation in both H chains; also called S324_20W Ho Ab
B11: GpH7-B3 variant S324_06M/GpL16-k0 (homodimerized antibody, Ho Ab) (antibody, human IgG1, kappa)
heavy: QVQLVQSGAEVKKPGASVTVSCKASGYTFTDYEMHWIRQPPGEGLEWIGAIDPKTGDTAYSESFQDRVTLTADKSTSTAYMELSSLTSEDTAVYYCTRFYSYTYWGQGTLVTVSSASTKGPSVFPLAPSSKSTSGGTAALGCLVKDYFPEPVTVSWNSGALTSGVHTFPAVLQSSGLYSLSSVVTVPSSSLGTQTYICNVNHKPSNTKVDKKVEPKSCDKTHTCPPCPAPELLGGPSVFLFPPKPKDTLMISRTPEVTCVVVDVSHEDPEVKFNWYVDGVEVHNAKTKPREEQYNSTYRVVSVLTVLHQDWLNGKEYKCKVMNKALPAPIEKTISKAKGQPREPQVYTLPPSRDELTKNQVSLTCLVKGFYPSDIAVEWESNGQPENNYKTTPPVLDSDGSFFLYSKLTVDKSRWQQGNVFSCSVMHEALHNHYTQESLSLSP
light: B1 light
notes: Mutation in both H chains; also called S324_06M Ho Ab
B12: GpH7-A5/GpH7-B3 variant P331_06M/GpL16-k0 (antibody, human IgG1, kappa)
heavy 1: not shown
heavy 2: not shown
light: B1 light
notes: heterodimerized IgG1; alteration in the GpH7-B3 H chain only; also called He Ab
B13: GpH7-A5/GpH7-B3 variant P331_07I/GpL16-k0 (antibody, human IgG1, kappa)
heavy 1: not shown
heavy 2: not shown
light: B1 light
notes: as for B12
B14: GpH7-A5/GpH7-B3 variant S324_06M/GpL16-k0 (antibody, human IgG1, kappa)
heavy 1: not shown
heavy 2: not shown
light: B1 light
notes: as for B12
B15: GpH7-A5/GpH7-B3 variant P331_04F/GpL16-k0 (antibody, human IgG1, kappa)
heavy 1: not shown
heavy 2: not shown
light: B1 light
notes: as for B12
B16: GpH7-A5/GpH7-B3 variant P331_10E/GpL16-k0 (antibody, human IgG1, kappa)
heavy 1: not shown
heavy 2: not shown
light: B1 light
notes: as for B12
B17: GpH7-A5/GpH7-B3 variant P331_15Y/GpL16-k0 (antibody, human IgG1, kappa)
heavy 1: not shown
heavy 2: not shown
light: B1 light
notes: as for B12
B18: GpH7-A5/GpH7-B3 variant N325_09D/GpL16-k0 (antibody, human IgG1, kappa)
heavy 1: not shown
heavy 2: not shown
light: B1 light
notes: as for B12
B19: GpH7-A5/GpH7-B3 variant A327_18N/GpL16-k0 (antibody, human IgG1, kappa)
heavy 1: not shown
heavy 2: not shown
light: B1 light
notes: as for B12

T4 sequence (P08637 17-208): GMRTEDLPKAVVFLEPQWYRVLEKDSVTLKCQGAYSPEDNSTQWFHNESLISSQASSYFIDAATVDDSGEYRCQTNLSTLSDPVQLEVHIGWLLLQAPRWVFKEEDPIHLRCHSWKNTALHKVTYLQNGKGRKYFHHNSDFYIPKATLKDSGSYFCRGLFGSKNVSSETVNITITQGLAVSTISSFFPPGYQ
T3 sequence (P12314 16-292): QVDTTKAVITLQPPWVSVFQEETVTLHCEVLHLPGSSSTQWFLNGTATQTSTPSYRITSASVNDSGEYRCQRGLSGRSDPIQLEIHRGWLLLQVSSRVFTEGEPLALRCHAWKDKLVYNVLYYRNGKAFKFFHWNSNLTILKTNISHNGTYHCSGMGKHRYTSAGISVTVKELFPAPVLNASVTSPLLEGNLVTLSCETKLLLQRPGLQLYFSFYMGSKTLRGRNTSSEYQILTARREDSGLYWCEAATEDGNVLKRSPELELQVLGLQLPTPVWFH

The target of the first test is T1, FcγRIIb extracellular domain with …. The experiment in a line: SPR (Biacore), antibody captured via antigen peptide, FcγR as analyte; binding relative to GpH7-A5/GpH7-B3/GpL16-k0 = 100. In general terms: SPR reads the build-up and loss of mass on a sensor chip optically.
For the molecule B1, the He/Con_2b is 79.7 % of control (GpH7-A5/GpH7-B3/GpL16-k0 = 100).
Consider B2, for which the He/Con_2b was 90.4 % of control (GpH7-A5/GpH7-B3/GpL16-k0 = 100).

A further test concerns the target T3, FcγRIa extracellular domain with C-terminal His tag (human, UniProt P12314 16-292).
T3 construct: extracellular domain; Soluble receptor expressed in FreeStyle293 cells, used as analyte in Biacore; also called FcgRI; CD64; not shown: His tag at the C terminus
The description is as above.
Turning to B1, the He/Con_1a was 104 % of control (GpH7-A5/GpH7-B3/GpL16-k0 = 100).
As for B2, the He/Con_1a was 104 % of control (GpH7-A5/GpH7-B3/GpL16-k0 = 100).

Another test has as its target T4, FcγRIIIa extracellular domain with C-terminal His tag (human, UniProt P08637 17-208).
T4 construct: extracellular domain; also called 3a; FcgRIIIa
The experiment in a line: SPR (Biacore), antibody captured on antigen-peptide chip, FcγR analyte, relative binding.
B3: the Ho/Con_3a was 119 % of GpH7-B3/GpL16-k0 (=100).
Still for that read-out and setting: as for B4, the figure is 116 % of GpH7-B3/GpL16-k0 (=100); as for B5, 252 % of GpH7-B3/GpL16-k0 (=100); as for B6, 101 % of GpH7-B3/GpL16-k0 (=100).
On to B7, for which the Ho/Con_3a is 110 % of GpH7-B3/GpL16-k0 (=100).
With B8, the Ho/Con_3a is 108 % of GpH7-B3/GpL16-k0 (=100).
On to B9, for which the Ho/Con_3a was 108 % of GpH7-B3/GpL16-k0 (=100).
For the molecule B10, the Ho/Con_3a is 102 % of GpH7-B3/GpL16-k0 (=100).
Take B11: the Ho/Con_3a was 114 % of GpH7-B3/GpL16-k0 (=100).

For another test, the target named is T5, FcγRIa (human, UniProt P12314 16-292).
T5 construct: extracellular domain; also called FcgRI; 1a; not shown: His tag at the C terminus
T5 sequence (P12314 16-292): as above
The experiment in a line: SPR (Biacore), antibody captured, FcγR as analyte; binding as % of GpH7-A5/GpH7-B3/GpL16-k0.
With B12, the He/Con_1a was 93.6 % of control.
On to B13, for which the He/Con_1a was 93.4 % of control.
Turning to B14, the He/Con_1a was 99.2 % of control.
For B15, the He/Con_1a was 95.5 % of control.
For B16, the He/Con_1a was 95 % of control.
On the same count and under the same terms, as for B17, the figure is 96 % of control.
As to B18, the He/Con_1a is 99.9 % of control.
On to B19, for which the He/Con_1a was 97.7 % of control.

The target of the next test is T2, FcγRIIb. The description is as above.
Consider B12, for which the He/Con_2b was 102 % of control.
As for B13, the He/Con_2b was 114 % of control.
Same read-out and setting: with B14 the figure was 112 % of control; with B15, 110 % of control.
Turning to B16, the He/Con_2b is 116 % of control.
In the case of B17, the He/Con_2b is 114 % of control.
B18: the He/Con_2b was 124 % of control.
As for B19, the He/Con_2b is 113 % of control.

Source of the values: patent US20180155451A1 (published 2018).
